In patent publication US10941182 (Amgen, dated 2021):
Starred links: 1 amine or outer side, 2 acyl side, 3 side chain; linkers in the order of their positions; H or OH if unused. Non-standard residues stand in square brackets, D forms with d. Primed or numbered codes have the meaning given here. *: point of attachment. dBip = N[C@H](Cc1ccc(-c2ccccc2)cc1)C(=O)O; Oic = O=C(O)[C@@H]1C[C@@H]2CCCC[C@@H]2N1; Phe(4-Cl) = N[C@@H](Cc1ccc(Cl)cc1)C(=O)O; Phe(4-I) = N[C@@H](Cc1ccc(I)cc1)C(=O)O; γGlu = O=C(O)[C@H](CCC(=O)[*:2])N[*:1]; Tridecanoyl = CCCCCCCCCCCCC(=O)*; hArg = N=C(N)NCCCC[C@H](N)C(=O)O; Cha = N[C@@H](CC1CCCCC1)C(=O)O; NMeL = CN[C@@H](CC(C)C)C(=O)O; Nle = CCCC[C@H](N)C(=O)O; Pip′ = not defined here; AEEA = NCCOCCOCC(=O)O

T1: rat APJ receptor (rat, UniProt Q9JHG3 1-377)
T1 sequence (looked up): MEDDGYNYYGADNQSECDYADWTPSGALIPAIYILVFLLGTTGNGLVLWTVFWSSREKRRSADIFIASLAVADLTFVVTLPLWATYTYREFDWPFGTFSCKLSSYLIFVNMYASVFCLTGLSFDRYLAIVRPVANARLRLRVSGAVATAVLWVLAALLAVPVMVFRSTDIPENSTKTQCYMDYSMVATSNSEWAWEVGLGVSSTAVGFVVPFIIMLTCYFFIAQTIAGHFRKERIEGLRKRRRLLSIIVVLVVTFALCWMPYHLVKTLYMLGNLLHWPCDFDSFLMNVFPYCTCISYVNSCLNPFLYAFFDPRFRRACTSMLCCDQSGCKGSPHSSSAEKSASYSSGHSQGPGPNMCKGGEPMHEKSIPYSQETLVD

T2: human APJ receptor (human, UniProt P35414 1-380)
T2 sequence (looked up): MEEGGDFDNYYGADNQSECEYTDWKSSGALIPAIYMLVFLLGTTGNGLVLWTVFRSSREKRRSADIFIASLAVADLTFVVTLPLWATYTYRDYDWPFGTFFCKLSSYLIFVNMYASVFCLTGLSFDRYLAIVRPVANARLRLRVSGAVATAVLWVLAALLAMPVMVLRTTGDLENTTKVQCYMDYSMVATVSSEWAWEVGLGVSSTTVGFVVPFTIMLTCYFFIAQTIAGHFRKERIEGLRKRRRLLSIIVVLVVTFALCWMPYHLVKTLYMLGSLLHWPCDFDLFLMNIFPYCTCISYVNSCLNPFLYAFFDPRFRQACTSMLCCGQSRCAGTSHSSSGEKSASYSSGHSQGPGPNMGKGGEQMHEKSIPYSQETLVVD


Experiments:
rat APJ receptor = target: T1, rat APJ receptor; assay: cell-based or functional assay
human APJ receptor = target: T2, human APJ receptor; assay: cell-based or functional assay

EC50 Rat APJ Receptor (GTPγS assay) (rat APJ receptor) | EC50 Human APJ Receptor (GTPγS assay) (human APJ receptor) | Binder
7.46 nM | 4.92 nM | Tridecanoyl-[γGlu][AEEA][AEEA]RQ[Nle]P[hArg][Cha]AAKG[Oic][Nle]P[Phe(4-Cl)]-OH (SMILES CCCCCCCCCCCCC(=O)N[C@@H](CCC(=O)NCCOCCOCC(=O)NCCOCCOCC(=O)N[C@@H](CCCNC(=N)N)C(=O)N[C@@H](CCC(N)=O)C(=O)N[C@@H](CCCC)C(=O)N1CCC[C@H]1C(=O)N[C@@H](CCCCNC(=N)N)C(=O)N[C@@H](CC1CCCCC1)C(=O)N[C@@H](C)C(=O)N[C@@H](C)C(=O)N[C@@H](CCCCN)C(=O)NCC(=O)N1[C@H](C(=O)N[C@@H](CCCC)C(=O)N2CCC[C@H]2C(=O)N[C@@H](Cc2ccc(Cl)cc2)C(=O)O)C[C@@H]2CCCC[C@@H]21)C(=O)O) [Apelin polypeptide SEQ ID NO: 348]
1.49 nM | 0.331 nM | Tridecanoyl-[γGlu][AEEA][AEEA]RQ[Nle]P[hArg][Cha]SAKG[Pip′][Nle]P[Phe(4-Cl)]-OH [Apelin polypeptide SEQ ID NO: 564]
2.82 nM | 1.02 nM | Tridecanoyl-[γGlu][AEEA][AEEA][dR]QRP[hArg][NMeL]SHKG[Pip′][Phe(4-I)]P[dBip]-OH [Apelin polypeptide SEQ ID NO: 565]
1.8 nM | 1.59 nM | Tridecanoyl-[γGlu][AEEA][AEEA]RQRP[hArg][Cha]AA[Nle]G[Oic][Nle]P[Phe(4-Cl)]-OH (SMILES CCCCCCCCCCCCC(=O)N[C@@H](CCC(=O)NCCOCCOCC(=O)NCCOCCOCC(=O)N[C@@H](CCCNC(=N)N)C(=O)N[C@@H](CCC(N)=O)C(=O)N[C@@H](CCCNC(=N)N)C(=O)N1CCC[C@H]1C(=O)N[C@@H](CCCCNC(=N)N)C(=O)N[C@@H](CC1CCCCC1)C(=O)N[C@@H](C)C(=O)N[C@@H](C)C(=O)N[C@@H](CCCC)C(=O)NCC(=O)N1[C@H](C(=O)N[C@@H](CCCC)C(=O)N2CCC[C@H]2C(=O)N[C@@H](Cc2ccc(Cl)cc2)C(=O)O)C[C@@H]2CCCC[C@@H]21)C(=O)O) [Apelin polypeptide SEQ ID NO: 351]
5.79 nM | 4.51 nM | Tridecanoyl-[γGlu][AEEA][AEEA]RQRP[Nle][Cha]AAKG[Oic][Nle]P[Phe(4-Cl)]-OH (SMILES CCCCCCCCCCCCC(=O)N[C@@H](CCC(=O)NCCOCCOCC(=O)NCCOCCOCC(=O)N[C@@H](CCCNC(=N)N)C(=O)N[C@@H](CCC(N)=O)C(=O)N[C@@H](CCCNC(=N)N)C(=O)N1CCC[C@H]1C(=O)N[C@@H](CCCC)C(=O)N[C@@H](CC1CCCCC1)C(=O)N[C@@H](C)C(=O)N[C@@H](C)C(=O)N[C@@H](CCCCN)C(=O)NCC(=O)N1[C@H](C(=O)N[C@@H](CCCC)C(=O)N2CCC[C@H]2C(=O)N[C@@H](Cc2ccc(Cl)cc2)C(=O)O)C[C@@H]2CCCC[C@@H]21)C(=O)O) [Apelin polypeptide SEQ ID NO: 345]

Second part, the binder before the results:

Binder | EC50 Rat APJ Receptor (GTPγS assay) (rat APJ receptor) | EC50 Human APJ Receptor (GTPγS assay) (human APJ receptor)
Tridecanoyl-[γGlu][AEEA][AEEA]RQRP[hArg][Cha]SH[Nle]G[Oic][Nle]P[Phe(4-Cl)]-OH (SMILES CCCCCCCCCCCCC(=O)N[C@@H](CCC(=O)NCCOCCOCC(=O)NCCOCCOCC(=O)N[C@@H](CCCNC(=N)N)C(=O)N[C@@H](CCC(N)=O)C(=O)N[C@@H](CCCNC(=N)N)C(=O)N1CCC[C@H]1C(=O)N[C@@H](CCCCNC(=N)N)C(=O)N[C@@H](CC1CCCCC1)C(=O)N[C@@H](CO)C(=O)N[C@@H](Cc1c[nH]cn1)C(=O)N[C@@H](CCCC)C(=O)NCC(=O)N1[C@H](C(=O)N[C@@H](CCCC)C(=O)N2CCC[C@H]2C(=O)N[C@@H](Cc2ccc(Cl)cc2)C(=O)O)C[C@@H]2CCCC[C@@H]21)C(=O)O) [Apelin polypeptide SEQ ID NO: 336] | 0.986 nM | 0.714 nM
Tridecanoyl-[γGlu][AEEA][AEEA]RQ[Nle]P[hArg][Cha]SHKG[Oic][Nle]P[Phe(4-Cl)]-OH (SMILES CCCCCCCCCCCCC(=O)N[C@@H](CCC(=O)NCCOCCOCC(=O)NCCOCCOCC(=O)N[C@@H](CCCNC(=N)N)C(=O)N[C@@H](CCC(N)=O)C(=O)N[C@@H](CCCC)C(=O)N1CCC[C@H]1C(=O)N[C@@H](CCCCNC(=N)N)C(=O)N[C@@H](CC1CCCCC1)C(=O)N[C@@H](CO)C(=O)N[C@@H](Cc1c[nH]cn1)C(=O)N[C@@H](CCCCN)C(=O)NCC(=O)N1[C@H](C(=O)N[C@@H](CCCC)C(=O)N2CCC[C@H]2C(=O)N[C@@H](Cc2ccc(Cl)cc2)C(=O)O)C[C@@H]2CCCC[C@@H]21)C(=O)O) [Apelin polypeptide SEQ ID NO: 339] | 4.53 nM | 2.55 nM
Tridecanoyl-[γGlu][AEEA][AEEA]RQRP[Nle][Cha]AHKG[Oic][Nle]P[Phe(4-Cl)]-OH (SMILES CCCCCCCCCCCCC(=O)N[C@@H](CCC(=O)NCCOCCOCC(=O)NCCOCCOCC(=O)N[C@@H](CCCNC(=N)N)C(=O)N[C@@H](CCC(N)=O)C(=O)N[C@@H](CCCNC(=N)N)C(=O)N1CCC[C@H]1C(=O)N[C@@H](CCCC)C(=O)N[C@@H](CC1CCCCC1)C(=O)N[C@@H](C)C(=O)N[C@@H](Cc1c[nH]cn1)C(=O)N[C@@H](CCCCN)C(=O)NCC(=O)N1[C@H](C(=O)N[C@@H](CCCC)C(=O)N2CCC[C@H]2C(=O)N[C@@H](Cc2ccc(Cl)cc2)C(=O)O)C[C@@H]2CCCC[C@@H]21)C(=O)O) [Apelin polypeptide SEQ ID NO: 344] | 5.58 nM | 3.46 nM
Tridecanoyl-[γGlu][AEEA][AEEA]RQ[Nle]P[hArg][Cha]SAKG[Oic][Nle]P[Phe(4-Cl)]-OH (SMILES CCCCCCCCCCCCC(=O)N[C@@H](CCC(=O)NCCOCCOCC(=O)NCCOCCOCC(=O)N[C@@H](CCCNC(=N)N)C(=O)N[C@@H](CCC(N)=O)C(=O)N[C@@H](CCCC)C(=O)N1CCC[C@H]1C(=O)N[C@@H](CCCCNC(=N)N)C(=O)N[C@@H](CC1CCCCC1)C(=O)N[C@@H](CO)C(=O)N[C@@H](C)C(=O)N[C@@H](CCCCN)C(=O)NCC(=O)N1[C@H](C(=O)N[C@@H](CCCC)C(=O)N2CCC[C@H]2C(=O)N[C@@H](Cc2ccc(Cl)cc2)C(=O)O)C[C@@H]2CCCC[C@@H]21)C(=O)O) [Apelin polypeptide SEQ ID NO: 343] | 1.24 nM | 1.4 nM
Tridecanoyl-[γGlu][AEEA][AEEA]RQRP[hArg][Cha]SA[Nle]G[Oic][Nle]P[Phe(4-Cl)]-OH (SMILES CCCCCCCCCCCCC(=O)N[C@@H](CCC(=O)NCCOCCOCC(=O)NCCOCCOCC(=O)N[C@@H](CCCNC(=N)N)C(=O)N[C@@H](CCC(N)=O)C(=O)N[C@@H](CCCNC(=N)N)C(=O)N1CCC[C@H]1C(=O)N[C@@H](CCCCNC(=N)N)C(=O)N[C@@H](CC1CCCCC1)C(=O)N[C@@H](CO)C(=O)N[C@@H](C)C(=O)N[C@@H](CCCC)C(=O)NCC(=O)N1[C@H](C(=O)N[C@@H](CCCC)C(=O)N2CCC[C@H]2C(=O)N[C@@H](Cc2ccc(Cl)cc2)C(=O)O)C[C@@H]2CCCC[C@@H]21)C(=O)O) [Apelin polypeptide SEQ ID NO: 340] | 0.676 nM | 0.345 nM
